This is an account of results in US20240010750A1 (Bayer, published 2024).

Assay [1] addresses T1, cynomolgus alpha2-Antiplasmin (cynomolgus (Macaca fascicularis), UniProt P08697 28-491 (human entry)).
T1 chain: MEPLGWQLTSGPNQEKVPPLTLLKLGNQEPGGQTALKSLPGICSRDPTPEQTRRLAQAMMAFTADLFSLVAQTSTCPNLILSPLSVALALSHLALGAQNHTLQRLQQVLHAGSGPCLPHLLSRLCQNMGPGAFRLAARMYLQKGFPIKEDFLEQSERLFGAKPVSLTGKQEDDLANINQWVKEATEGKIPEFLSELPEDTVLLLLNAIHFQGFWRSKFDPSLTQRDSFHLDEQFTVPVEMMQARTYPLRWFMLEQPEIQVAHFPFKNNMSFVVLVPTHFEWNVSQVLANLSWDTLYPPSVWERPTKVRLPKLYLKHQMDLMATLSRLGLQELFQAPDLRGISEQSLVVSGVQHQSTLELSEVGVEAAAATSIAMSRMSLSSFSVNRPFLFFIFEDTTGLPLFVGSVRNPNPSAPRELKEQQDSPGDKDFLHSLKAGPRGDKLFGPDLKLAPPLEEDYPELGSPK
The assay is described as follows: cell-based or functional assay.

Assay [2] has as its target T2, A2AP peptides with the consensus motif SRMSLSS (human).
T2 construct: Consensus motif shared by the reacting peptides of the PEPperCHIP arrays (linear 15-mers; cyclic 7-, 10- and 13-mers closed by a thioether)
T2 peptide: SRMSLSS
The assay is described as follows: PEPperCHIP peptide microarray, antibody at 1 µg/ml. On the procedure: Antibodies were incubated on the Microarray in concentrations of 1 μg/ml, 10 μg/ml and 100 μg/ml in incubation buffer. Incubation time was 16 h at 4° C. and shaking at 140 rpm.
As secondary antibody the goat anti-human IgG (Fc) DyLight680 was used at a dilution of 1:5000. This detection antibody was incubated on the Microarray at 45 min staining in incubation buffer at room temperature.
Microarray image analysis was done with PepSlide® Analyzer. A software algorithm was used to break down fluorescence intensities of each spot into raw, foreground and background signal, and calculated averaged median foreground intensities and spot-to-spot deviations of spot duplicates. Based on averaged median foreground intensities, an intensity map was generated and interactions in the peptide map highlighted by an intensity color code with red for high and white for low spot intensities. Averaged spot intensities of the assays were plotted with the antibody samples against the antigen sequence from the N- to the C-terminus to visualize overall spot intensities and signal-to-noise ratios. The intensity plots were correlated with peptide and intensity maps as well as with visual inspection of the microarray scans to identify the epitopes of the tested antibodies.

The target in the next assay is T3, human alpha2-Antiplasmin (human, UniProt P08697 40-491).
T3 construct: Bought (antibodies online, ABIN2544306); also called human A2AP; a2AP
T3 sequence: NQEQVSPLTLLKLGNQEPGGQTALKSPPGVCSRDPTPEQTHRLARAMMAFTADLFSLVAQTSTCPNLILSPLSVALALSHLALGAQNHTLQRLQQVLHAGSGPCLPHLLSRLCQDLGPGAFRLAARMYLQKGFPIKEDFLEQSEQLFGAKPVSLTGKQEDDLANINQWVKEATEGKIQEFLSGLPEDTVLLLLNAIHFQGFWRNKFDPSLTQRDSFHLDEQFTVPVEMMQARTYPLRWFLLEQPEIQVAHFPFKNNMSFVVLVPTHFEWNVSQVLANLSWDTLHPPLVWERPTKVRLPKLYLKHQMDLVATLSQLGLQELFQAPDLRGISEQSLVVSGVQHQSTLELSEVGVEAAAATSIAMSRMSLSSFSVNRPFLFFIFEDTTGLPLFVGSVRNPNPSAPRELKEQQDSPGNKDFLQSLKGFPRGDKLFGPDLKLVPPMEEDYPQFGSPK
The assay is described as follows: ELISA, coated antigen, 2nd exp. On the procedure:
(§1) A standard ELISA format was used for analyzing the binding affinity of Fabs of this invention to human and rabbit alpha-2-Antiplasmin, respectively. Antigens were coated to black 384 well Maxisorp microtiter plates (Nunc; catalogue number 460518), diluted to a concentration of 1 μg/ml in 1× Coating Buffer (Candor Bioscience; catalogue number 121125). Plates were incubated overnight at 4° C. After overnight incubation, plates were washed 2× with 50 μl/well using PBS+0.05% Tween 20. Following this, 50 μl/well of blocking buffer (Smart Block; Candor Bioscience; catalogue number 113500) was added and the plates were incubated for 1 hour at room temperature. Afterwards, plates were washed for 3× using […] PBS+0.05% Tween 20 buffer. Fabs of this invention were added at different concentrations in a final volume of 30 μl/well. Plates were incubated for 1 hour at room temperature. Following this incubation step, plates were washed for 3× using 50 μl/well of a PBS+0.05% Tween 20 buffer. For the detection of bound Fabs and full-length antibodies, the anti-Human Lambda Light Chains (Bound and Free)—Peroxidase antibody (Sigma; catalogue number A5175) was diluted by the factor of 1:10.000 in 10% Blocking Buffer. […]
(§2) For measurement, the Infinite f500 reader (Tecan) was used. Measurement mode: Fluorescence; Top reading; Ex 535 nm; Em 590 nm. […]

Assay [3] addresses T4, rabbit alpha2-Antiplasmin (rabbit (Oryctolagus cuniculus)).
T4 construct: Made in house in HEK293 cells, purified by Ni-IMAC and SEC (a His tag is implied but not described); also called rabbit A2AP; Oryctolagus cuniculus A2AP
T4 chain: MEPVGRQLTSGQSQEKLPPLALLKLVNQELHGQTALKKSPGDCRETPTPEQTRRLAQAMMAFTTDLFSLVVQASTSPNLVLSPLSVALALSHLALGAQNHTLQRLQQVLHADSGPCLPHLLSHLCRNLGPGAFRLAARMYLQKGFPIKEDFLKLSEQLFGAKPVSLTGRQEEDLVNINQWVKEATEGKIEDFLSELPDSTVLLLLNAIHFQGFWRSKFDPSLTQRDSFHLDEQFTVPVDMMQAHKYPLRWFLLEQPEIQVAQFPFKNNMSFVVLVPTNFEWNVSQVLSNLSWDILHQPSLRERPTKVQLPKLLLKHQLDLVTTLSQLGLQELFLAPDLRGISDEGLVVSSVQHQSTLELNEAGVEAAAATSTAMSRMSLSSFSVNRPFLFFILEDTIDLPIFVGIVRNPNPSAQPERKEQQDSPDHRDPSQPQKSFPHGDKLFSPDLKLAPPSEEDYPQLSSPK
The assay is described as follows: ELISA, coated antigen, 2nd exp. On the procedure: as §1, §2

Assay [4] has as its target T4, rabbit alpha2-Antiplasmin. The assay is described as follows: ELISA (Example 3): antigen coated at 1 ug/ml, detection with anti-human lambda light chain-peroxidase and Amplex Red, RFU [right panel]. On the procedure:
as §1
For measurement, the Infinite f500 reader (Tecan) was used. Measurement mode: Fluorescence; Top reading; Ex 535 nm; Em 590 nm.

B1: TPP-12387 hIgG1 (antibody, V domains shown)
VH: EVQLLESGGGLVQPGGSLRLSCAASGFTFDDYAMSWVRQAPGKGLEWVSAIGTGGGTYYADSVKGRFTISRDNSKNTLYLQMNSLRAEDTAVYYCAREYYDSSGYYHLDYWGQGTLVTVSS
VL: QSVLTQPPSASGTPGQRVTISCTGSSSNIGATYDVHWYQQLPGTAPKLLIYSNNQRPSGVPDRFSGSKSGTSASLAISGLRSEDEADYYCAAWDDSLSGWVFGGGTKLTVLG
notes: Fully human IgG1 lambda from the BioInvent n-CoDeR Fab lambda library; parental lead antibody
Turning to B1, the “EC50 (read off the curve); function blocking assay (Example 4), RFU of plasmin substrate cleavage” value in assay [1] was ~200 nM. Besides, the “signal-to-noise-ratio at 1 µg/ml” value in assay [2] worked out at 659. The values for the EC50 (with human alpha2-Antiplasmin; in assay [3]) were 100 nM and 6.07 nM, respectively. The “EC50 (read off the curve)” value in assay [4] is ~6 nM.
